Test results as given in PMC11876703, “Structural basis for human NKCC1 inhibition by loop diuretic drugs” (The EMBO Journal, 2025).
Positions count from the first letter of the chain named. Names and notes keep the numbering of the source. Values belong to the binder of their own block, whether it stands above or below them.

Tests used:
[1] = target: T1, phospho-activated human NKCC1 (Na+-K+-Cl- cotransporter 1) (human), P55011; experiment: cryo-EM structure; purified pNKCC1 in GDN, 20 mM HEPES pH 7.4, with 100 uM bumetanide, 100 uM torsemide (K+-free buffer) or 2 mM furosemide plus 100 uM ATP; homodimer; conditions: remark: other sources report otherwise
T1 chain: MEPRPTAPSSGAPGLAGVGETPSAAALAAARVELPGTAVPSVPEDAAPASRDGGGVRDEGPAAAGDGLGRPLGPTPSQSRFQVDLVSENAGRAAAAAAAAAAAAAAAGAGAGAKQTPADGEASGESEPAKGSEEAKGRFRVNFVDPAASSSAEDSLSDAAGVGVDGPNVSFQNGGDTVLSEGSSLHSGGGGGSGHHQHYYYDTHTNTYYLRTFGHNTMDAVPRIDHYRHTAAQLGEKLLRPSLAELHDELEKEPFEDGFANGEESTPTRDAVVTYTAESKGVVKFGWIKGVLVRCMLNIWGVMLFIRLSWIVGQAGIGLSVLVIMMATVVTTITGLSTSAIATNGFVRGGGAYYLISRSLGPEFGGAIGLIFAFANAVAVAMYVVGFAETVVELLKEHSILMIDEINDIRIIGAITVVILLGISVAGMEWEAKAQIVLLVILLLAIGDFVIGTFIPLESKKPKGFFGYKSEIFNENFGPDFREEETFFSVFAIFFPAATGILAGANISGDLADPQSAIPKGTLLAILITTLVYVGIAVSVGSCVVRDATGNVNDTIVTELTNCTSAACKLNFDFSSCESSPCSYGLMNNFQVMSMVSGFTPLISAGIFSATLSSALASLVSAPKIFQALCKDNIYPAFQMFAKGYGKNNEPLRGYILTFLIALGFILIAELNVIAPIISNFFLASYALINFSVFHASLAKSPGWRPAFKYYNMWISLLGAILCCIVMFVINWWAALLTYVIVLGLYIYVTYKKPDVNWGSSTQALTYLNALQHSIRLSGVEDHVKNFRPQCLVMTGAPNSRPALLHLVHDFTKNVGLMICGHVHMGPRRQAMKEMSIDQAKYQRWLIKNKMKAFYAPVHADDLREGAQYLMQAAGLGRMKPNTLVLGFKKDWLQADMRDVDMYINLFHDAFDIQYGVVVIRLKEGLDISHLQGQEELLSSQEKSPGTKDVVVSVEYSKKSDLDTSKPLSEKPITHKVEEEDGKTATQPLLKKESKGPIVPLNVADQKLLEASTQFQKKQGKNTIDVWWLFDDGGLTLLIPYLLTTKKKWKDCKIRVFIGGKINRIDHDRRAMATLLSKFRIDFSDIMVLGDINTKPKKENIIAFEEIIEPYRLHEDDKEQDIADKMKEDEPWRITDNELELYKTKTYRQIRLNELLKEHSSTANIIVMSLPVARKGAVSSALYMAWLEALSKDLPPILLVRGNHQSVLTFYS

[2] = target: the molecule itself; experiment: as above

stoichiometry N [1]: 2
B1: phospho-activated human NKCC1 (Na+-K+-Cl- cotransporter 1), P55011 1-1212 (natural protein)
chain: T1 chain
modifications: here or on the partner: phosphothreonine at Thr212, Thr217 and Thr230 (verified by mass spectrometry); Thr203, Thr205 and Thr207 also named as phosphoacceptor sites confirmed by mass spectrometry; phosphothreonine at Thr212, Thr217 and Thr230 (verified by mass spectrometry); Thr203, Thr205 and Thr207 also named as phosphoacceptor sites confirmed by mass spectrometry

B2: phospho-activated human NKCC1 bearing K289N and A492E mutations (natural protein, UniProt P55011 1-1212, looked up)
chain: T1 chain with K289N, A492E
modifications: phosphothreonine at Thr212, Thr217 and Thr230 (verified by mass spectrometry; pT212 and pT217 clearly seen in the map, pT230 tentatively modeled); Thr203, Thr205 and Thr207 also named as phosphoacceptor sites confirmed by mass spectrometry
notes: Used for the furosemide/ATP-Mg2+ co-structure; The tag was used for Strep-Tactin purification and no cleavage step is described; also called pNKCC1; NKCC1 (furosemide co-structure); source: calyculin-A treated; purified (Strep-Tactin resin, Superose 6) in GDN with 100 uM ATP
stoichiometry N [2]: 2
